{
  "source": "patent CN110498854A",
  "about": "(UNIV ARMY MEDICAL, dated 2019)",
  "binders": {"B1": {"name": "全人源SEB单克隆抗体M0313 (antibody, V domains shown)", "VH": "EVQLVQSGGGLVQPGGSLRLSCAASGFTLSNYGMSWVRQSPGKGLEWVSGISGGSGSTCYADFVKGRFTISRDKSKNTLSLEMNSLRAEDRAVYYCAKDREYYNSGYYYFPYQYAMDVWGQGTTVTVSS", "VL": "QSVLTQPPSASGTPGQRVTISCSGGRPNIGGNSVYWYQQFPGTSPKLLIYTNDQRPSGVPDRFSGSKSGTSASLAISGLRSEDEADYYCAAWDDSLSAYVFGAGTKVTVL"}},
  "key": {"金黄色葡萄球菌肠毒素B (SEB) [1]": {"molecular_target": "T1, 金黄色葡萄球菌肠毒素B (SEB) (Staphylococcus aureus (ATCC BAA-1556), UniProt P01552 28-266)", "T1 sequence (P01552 28-266, tags left off)": "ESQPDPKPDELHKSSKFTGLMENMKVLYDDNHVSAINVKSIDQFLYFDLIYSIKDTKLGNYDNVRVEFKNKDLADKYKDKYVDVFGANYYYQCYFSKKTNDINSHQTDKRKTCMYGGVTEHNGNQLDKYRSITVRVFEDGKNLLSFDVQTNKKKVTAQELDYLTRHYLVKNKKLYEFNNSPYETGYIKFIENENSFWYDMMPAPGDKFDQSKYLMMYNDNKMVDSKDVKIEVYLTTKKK"}, "金黄色葡萄球菌肠毒素B (SEB) [2]": {"molecular_target": "T1, 金黄色葡萄球菌肠毒素B (SEB)", "assay": "ELISA, antigen coated"}},
  "data": [
    {"binder": "B1", "values": [
      {"measurement": "Kd", "setting": "金黄色葡萄球菌肠毒素B (SEB) [1]", "value": 3.22, "unit": "nM"},
      {"measurement": "koff", "setting": "金黄色葡萄球菌肠毒素B (SEB) [1]", "value": 0.00292, "unit": "s⁻¹"},
      {"measurement": "kon", "setting": "金黄色葡萄球菌肠毒素B (SEB) [1]", "value": 908000, "unit": "M⁻¹ s⁻¹"},
      {"measurement": "EC50", "setting": "金黄色葡萄球菌肠毒素B (SEB) [2]", "value": 7.3, "unit": "ng/mL"}
    ]}
  ]
}
